Measurements published in the supplement of paper PMC7877785.
± gives the uncertainty stated by the source.

Experiment: self-splicing fitness, log relative to wild type (ln ratio); higher = more splicing; Tetrahymena group I intron in knt gene, E. coli kanamycin selection, DiMSum; sequences stand for … in CUCUCU…GGAGGGAAAAGUUAUCAGGCAUGCACCUGGUAGCUAGUCUUUAAACCAAUAGAUUGCAUCGGUUUAAAAGGCAAGACCGUCAAAUUGCGGGAAAGGGGUCAACAGCCGUUCAGUACCAAGUCUCAGGGGAAACUUUGAGAUGGCCUUGCAAAGGGUAUGGUAAUAAGCUGACGGACAUGGUCCUAACCACGCAGCCAAGUCCUAAGUCAACAGAUCUUCUGUUGAUAUGGAUGCAGUUCACAGACUAAAUGUCGGUCGGGGAAGAUGUAUUCUUCUCAUAAGAUAUAGUCGGACCUCUCCUUAAUGGGAGCUAGCGGAUGAAGUGAUGCAACACUGGAGCCGCUGGGAACUAAUUUGUAUGCGAAAGUAUAUUGAUUAGUUUUGGAGUACUCGUGGUCG
How it was run: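 A randomised library covering all eight P1ex-region intron nucleotides was built with the intron in the knt kanamycin-resistance gene on pET-22b(+) and held in E. coli BL21(DE3). Cells were grown overnight at 37°C or 30°C on LB agar, with or without 25 μg/mL kanamycin, plus 100 μg/mL carbenicillin, 50 μM IPTG and 0.2% rhamnose, and pooled colonies were amplicon-sequenced on an Illumina HiSeq 2500. DiMSum fitness is the error-weighted combination of wild-type-normalised replicate fold changes, kanamycin versus none.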

| Sequence | self-splicing fitness (ln) (30 °C) | self-splicing fitness (ln) (37 °C) |
| --- | --- | --- |
| UGGAAGCAAUAUUACGACAC | -2.87 ± 0.17 | -3.13 ± 0.25 |
| UGGAAGCAAUAUUACGACUU | 0.319 ± 0.15 | 0.0401 ± 0.17 |
| UGGAAGCAAUAUUACGAGUU | -3.25 ± 0.19 | -1.8 ± 0.16 |
| UGGAAGCAAUAUUACGAUCA | -0.348 ± 0.093 | 0.181 ± 0.12 |
| UGGAAGCAAUAUUACGCAUC |  | -1.1 ± 0.3 |
| UGGAAGCAAUAUUACGCCAA | -1.12 ± 0.24 | -0.536 ± 0.26 |
| UGGAAGCAAUAUUACGCCCC | -1.69 ± 0.41 | -1.36 ± 0.35 |
| UGGAAGCAAUAUUACGCGAU | -2.02 ± 0.14 | -2.12 ± 0.25 |
| UGGAAGCAAUAUUACGCGCU | -1.17 ± 0.21 | -1.52 ± 0.3 |
| UGGAAGCAAUAUUACGCGGC | -2.11 ± 0.26 | -1.08 ± 0.26 |
| UGGAAGCAAUAUUACGCGUU | -4.13 ± 0.18 | -3.03 ± 0.26 |
| UGGAAGCAAUAUUACGCUCG | -0.853 ± 0.13 | -0.272 ± 0.15 |
| UGGAAGCAAUAUUACGCUUU | -3.64 ± 0.23 | -2.64 ± 0.28 |
| UGGAAGCAAUAUUACGGAAA | -1.8 ± 0.41 | -1.43 ± 0.4 |
| UGGAAGCAAUAUUACGGAAU | -2.76 ± 0.12 | -1.01 ± 0.096 |
| UGGAAGCAAUAUUACGUCCC | -0.397 ± 0.19 | 0.402 ± 0.22 |
| UGGAAGCAAUAUUACGUCCG | -2.72 ± 0.21 | -2.41 ± 0.22 |
| UGGAAGCAAUAUUACGUGGG | -2.89 ± 0.13 | -2.53 ± 0.18 |
| UGGCAGCAAUAUUACGAACU | -1.29 ± 0.12 | -0.471 ± 0.16 |
| UGGCAGCAAUAUUACGAAGU | -3.69 ± 0.37 | -2.62 ± 0.23 |
| UGGCAGCAAUAUUACGACCU | 0.0278 ± 0.12 | 0.0625 ± 0.12 |
| UGGCAGCAAUAUUACGAUGG | -1.48 ± 0.17 | -1.67 ± 0.18 |
| UGGCAGCAAUAUUACGCCGU | -2.63 ± 0.18 | -2.02 ± 0.17 |
| UGGCAGCAAUAUUACGCGGG | -2.76 ± 0.27 | -1.48 ± 0.24 |
| UGGCAGCAAUAUUACGCGUA | -0.0648 ± 0.084 | -0.33 ± 0.087 |

| Sequence | self-splicing fitness (ln) (30 °C) | self-splicing fitness (ln) (37 °C) |
| --- | --- | --- |
| UGGCAGCAAUAUUACGCUAA | -0.652 ± 0.06 | 0.116 ± 0.069 |
| UGGCAGCAAUAUUACGCUAC | -3.85 ± 0.35 |  |
| UGGCAGCAAUAUUACGCUCC | -2.19 ± 0.37 |  |
| UGGCAGCAAUAUUACGCUGC | -2.98 ± 0.25 |  |
| UGGCAGCAAUAUUACGGAAA | -1.94 ± 0.16 | -0.318 ± 0.14 |
| UGGCAGCAAUAUUACGGACA | 0.0855 ± 0.098 | 0.0548 ± 0.14 |
| UGGCAGCAAUAUUACGGACU | -0.554 ± 0.066 | 0.386 ± 0.082 |
| UGGCAGCAAUAUUACGGCAA | 0.308 ± 0.22 | 0.661 ± 0.19 |
| UGGCAGCAAUAUUACGGCGG | -0.882 ± 0.11 | 0.549 ± 0.15 |
| UGGCAGCAAUAUUACGGGGG | -3.38 ± 0.23 | -2.84 ± 0.29 |
| UGGCAGCAAUAUUACGUAAU | -2.04 ± 0.082 | -1.05 ± 0.11 |
| UGGCAGCAAUAUUACGUAUA | -1.29 ± 0.097 | 0.00255 ± 0.11 |
| UGGCAGCAAUAUUACGUCGU | -2.65 ± 0.099 | -1.22 ± 0.096 |
| UGGCAGCAAUAUUACGUUAG | -0.283 ± 0.087 | 0.37 ± 0.12 |
| UGGGAGCAAUAUUACGAAUU |  | -2.63 ± 0.28 |
| UGGGAGCAAUAUUACGACUG | -0.532 ± 0.39 | -1.31 ± 0.47 |
| UGGGAGCAAUAUUACGACUU | -2.15 ± 0.091 | -0.921 ± 0.11 |
| UGGGAGCAAUAUUACGCGGG | -3.85 ± 0.22 | -2.89 ± 0.19 |
| UGGGAGCAAUAUUACGCGUC | -0.5 ± 0.36 |  |
| UGGGAGCAAUAUUACGGGGG | -2.97 ± 0.25 | -2.17 ± 0.35 |
| UGGGAGCAAUAUUACGUACA | -1.26 ± 0.22 | -0.889 ± 0.42 |
| UGGGAGCAAUAUUACGUCAC | -1.96 ± 0.36 |  |
| UGGGAGCAAUAUUACGUCAG | -2.87 ± 0.23 | -1.5 ± 0.3 |
| UGGGAGCAAUAUUACGUCCA | -2.03 ± 0.12 | -1.13 ± 0.11 |
| UGGGAGCAAUAUUACGUGCA | -1.07 ± 0.093 | -0.293 ± 0.11 |

| Sequence | self-splicing fitness (ln) (30 °C) | self-splicing fitness (ln) (37 °C) |
| --- | --- | --- |
| UGGGAGCAAUAUUACGUGCC | -2.29 ± 0.34 | -2.09 ± 0.35 |
| UGGGAGCAAUAUUACGUGGA | -2.94 ± 0.44 | -2.11 ± 0.2 |
| UGGUAGCAAUAUUACGAACG | -0.892 ± 0.19 | 0.374 ± 0.22 |
| UGGUAGCAAUAUUACGAAUU | -1.86 ± 0.36 | -2.22 ± 0.32 |
| UGGUAGCAAUAUUACGACGG | -1.49 ± 0.11 | -0.695 ± 0.13 |
| UGGUAGCAAUAUUACGAGAU |  | -1.76 ± 0.43 |
| UGGUAGCAAUAUUACGAGGA | -2.9 ± 0.26 | -2.09 ± 0.32 |
| UGGUAGCAAUAUUACGAGGC | -2.16 ± 0.28 | -2.19 ± 0.28 |
| UGGUAGCAAUAUUACGAUGC | -3.09 ± 0.5 | -1.82 ± 0.43 |
| UGGUAGCAAUAUUACGCGAA | -0.913 ± 0.11 | -0.833 ± 0.11 |
| UGGUAGCAAUAUUACGCUCC | -2.54 ± 0.24 | -2.44 ± 0.21 |
| UGGUAGCAAUAUUACGGACG | 1.33 ± 0.17 | 0.34 ± 0.19 |
| UGGUAGCAAUAUUACGGACU | -0.67 ± 0.17 | 0.844 ± 0.2 |
| UGGUAGCAAUAUUACGGAGG | -3.85 ± 0.27 | -1.56 ± 0.16 |
| UGGUAGCAAUAUUACGGAUU | -3.77 ± 0.4 | -0.91 ± 0.31 |
| UGGUAGCAAUAUUACGGCAU | -1.5 ± 0.2 | -0.405 ± 0.21 |
| UGGUAGCAAUAUUACGGCGC | -1.57 ± 0.37 | -0.642 ± 0.3 |
| UGGUAGCAAUAUUACGGGGG | -3.73 ± 0.32 | -2.45 ± 0.33 |
| UGGUAGCAAUAUUACGGUCU | -0.135 ± 0.21 | -0.457 ± 0.33 |
| UGGUAGCAAUAUUACGUAAU | -1.61 ± 0.19 | -0.903 ± 0.16 |
| UGGUAGCAAUAUUACGUACA | -0.28 ± 0.087 | 0.35 ± 0.12 |
| UGGUAGCAAUAUUACGUCGG | -1.21 ± 0.12 | -0.18 ± 0.15 |
| UGGUAGCAAUAUUACGUGGA | -2.71 ± 0.26 | -1.98 ± 0.16 |
| UGGUAGCAAUAUUACGUUUG | -1.26 ± 0.07 | -0.669 ± 0.098 |
| UGUAAGCAAUAUUACGAAUA | -0.825 ± 0.21 | -0.536 ± 0.23 |

| Sequence | self-splicing fitness (ln) (30 °C) | self-splicing fitness (ln) (37 °C) |
| --- | --- | --- |
| UGUAAGCAAUAUUACGAAUG | -0.511 ± 0.077 | -0.125 ± 0.099 |
| UGUAAGCAAUAUUACGACUU | -1.06 ± 0.09 | 0.0267 ± 0.14 |
| UGUAAGCAAUAUUACGAGAC | -3.68 ± 0.43 | -0.552 ± 0.26 |
| UGUAAGCAAUAUUACGAUCG | 0.587 ± 0.097 | -0.129 ± 0.11 |
| UGUAAGCAAUAUUACGAUUU | -1.82 ± 0.17 | -1.24 ± 0.14 |
| UGUAAGCAAUAUUACGCAAC | -3.15 ± 0.31 | -1.79 ± 0.29 |
| UGUAAGCAAUAUUACGCACA | -1.44 ± 0.13 | -0.574 ± 0.17 |
| UGUAAGCAAUAUUACGCGAG | -3.32 ± 0.27 | -1.56 ± 0.17 |
| UGUAAGCAAUAUUACGCGUU | -2.69 ± 0.26 | -0.234 ± 0.2 |
| UGUAAGCAAUAUUACGGACU | -0.351 ± 0.094 | 0.0199 ± 0.11 |
| UGUAAGCAAUAUUACGGCAU | -1.48 ± 0.12 | -0.402 ± 0.11 |
| UGUAAGCAAUAUUACGGCCG | -0.494 ± 0.17 | -0.516 ± 0.25 |
| UGUAAGCAAUAUUACGGCCU | -1.08 ± 0.1 | -0.452 ± 0.12 |
| UGUAAGCAAUAUUACGGCGU | -0.483 ± 0.1 | -0.397 ± 0.12 |
| UGUAAGCAAUAUUACGGGAC | -2.45 ± 0.25 | -2.62 ± 0.44 |
| UGUAAGCAAUAUUACGGUAA | -1.8 ± 0.2 | -0.586 ± 0.12 |
| UGUAAGCAAUAUUACGUAUU | -2.86 ± 0.11 | -0.873 ± 0.083 |
| UGUAAGCAAUAUUACGUCCA | 0.388 ± 0.1 | -0.132 ± 0.12 |
| UGUAAGCAAUAUUACGUGAG | -1.07 ± 0.047 | -0.92 ± 0.077 |
| UGUAAGCAAUAUUACGUGCC | -1.46 ± 0.2 | -0.0201 ± 0.22 |
| UGUAAGCAAUAUUACGUGGG | -3.6 ± 0.19 | -2.42 ± 0.22 |
| UGUAAGCAAUAUUACGUUAA | -2.04 ± 0.13 | -0.926 ± 0.12 |
